Here are results for one variant from IntAct's records for PubMed 24535599.

Sequences and labels used below:
B1: Growth factor receptor-bound protein 14 (Homo sapiens), Q14449 (parent)
chain: MTTSLQDGQSAASRAAARDSPLAAQVCGAAQGRGDAHDLAPAPWLHARALLPLPDGTRGCAADRRKKKDLDVPEMPSIPNPFPELCCSPFTSVLSADLFPKANSRKKQVIKVYSEDETSRALDVPSDITARDVCQLLILKNHYIDDHSWTLFEHLPHIGVERTIEDHELVIEVLSNWGIEEENKLYFRKNYAKYEFFKNPMYFFPEHMVSFATETNGEISPTQILQMFLSSSTYPEIHGFLHAKEQGKKSWKKIYFFLRRSGLYFSTKGTSKEPRHLQFFSEFGNSDIYVSLAGKKKHGAPTNYGFCFKPNKAGGPRDLKMLCAEEEQSRTCWVTAIRLLKYGMQLYQNYMHPYQGRSGCSSQSISPMRSISENSLVAMDFSGQKSRVIENPTEALSVAVEEGLAWRKKGCLRLGTHGSPTASSQSSATNMAIHRSQPWFHHKISRDEAQRLIIQQGLVDGVFLVRDSQSNPKTFVLSMSHGQKIKHFQIIPVEDDGEMFHTLDDGHTRFTDLIQLVEFYQLNKGVLPCKLKHYCARIAL

Variants of B1 are the subject of the test. The note with it: with INSR.
On to MTTSLQDGQSAASRAAARDSPLAAQVCGAAQGRGDAHDLAPAPWLHARALLPLPDGTRGCAADRRKKKDLDVPEMPSIPNPFPELCCSPFTSVLSADLFPKANSRKKQVIKVYSEDETSRALDVPSDITARDVCQLLILKNHYIDDHSWTLFEHLPHIGVERTIEDHELVIEVLSNWGIEEENKLYFRKNYAKYEFFKNPMYFFPEHMVSFATETNGEISPTQILQMFLSSSTYPEIHGFLHAKEQGKKSWKKIYFFLRRSGLYFSTKGTSKEPRHLQFFSEFGNSDIYVSLAGKKKHGAPTNYGFCFKPNKAGGPRDLKMLCAEEEQSRTCWVTAIRLLKYGMQLYQNYMHPYQGRAGCSAQSIAPMRSISENSLVAMDFSGQKSRVIENPTEALSVAVEEGLAWRKKGCLRLGTHGSPTASSQSSATNMAIHRSQPWFHHKISRDEAQRLIIQQGLVDGVFLVRDSQSNPKTFVLSMSHGQKIKHFQIIPVEDDGEMFHTLDDGHTRFTDLIQLVEFYQLNKGVLPCKLKHYCARIAL [S358A;S362A;S366A], for which the “effect of a mutation on the interaction” value is given as “increasing interaction strength”.
